Assay results from the supplement of paper PMC9732359.
± gives the uncertainty stated by the source.

Assay: protein stability index of a GFP-peptide fusion (yeast GPS) (PSI 1-4); higher = more stable; sorted into four equal gates, so the index is relative within each strain
How it was run: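 Each library plasmid carries Cherry plus GFP with a tiled 17-residue yeast protein peptide fused downstream, and the pooled library was carried in yeast. Mid-log cultures in leucine-free medium were sorted into four equal gates by GFP/Cherry ratio. Reads from Illumina sequencing of PCR-amplified plasmids from each gate were assigned to strains by barcodes. Per peptide, the protein stability index was computed as the summed products of gate read frequency and gate number.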

Sequence | protein stability index (doa10∆) | protein stability index (pdr5∆) | protein stability index (ubr1∆) | protein stability index (san1∆)
AAAGAAMIDAGALEEIT [FAS2] | 2.72 ± 0.15 | 2.96 ± 0.11 | 2.73 ± 0.1 | 
AAANNNIKPVEQHHINN [GAL11] | 2.97 ± 0.095 | 2.67 ± 0.066 | 2.96 ± 0.062 | 2.72 ± 0.077
AAAQAQSKIDLTKKKNE [SEM1] | 2.9 ± 0.079 | 2.83 ± 0.096 | 2.87 ± 0.083 | 2.94 ± 0.082
AADILCELQVETYGSME [RPN5] | 3.15 ± 0.1 | 3.34 ± 0.075 | 3.18 ± 0.23 | 3.27 ± 0.1
AAELLDKRIVISIDSWP [DIS3] | 1.61 ± 0.062 | 1.87 ± 0.09 | 1.95 ± 0.072 | 1.55 ± 0.14
AAEQQSKAFKESSDFGA [SRP54] | 2.8 ± 0.057 | 2.3 ± 0.049 | 2.34 ± 0.057 | 2.58 ± 0.082
AAFKDIAKRQFKEILTV [RRP40] | 2.27 ± 0.051 | 2.54 ± 0.062 | 2.55 ± 0.05 | 2.58 ± 0.062
AAIWTLCKTKMVCETDV [RPO21] | 1.55 ± 0.059 | 1.69 ± 0.057 | 1.47 ± 0.034 | 1.44 ± 0.1
AAKKAMYTLSAQDEVFS [ASC1] | 2.78 ± 0.071 | 2.6 ± 0.063 | 2.83 ± 0.06 | 2.23 ± 0.091
AAPAGVAGGVAGGEAGE [RPP1A] | 1.91 ± 0.16 | 1.8 ± 0.18 |  | 1.66 ± 0.28
AARKAEKAKSAGTQSSK [RPL24A] | 3.13 ± 0.099 | 3.11 ± 0.068 | 3.29 ± 0.043 | 3.22 ± 0.082
AARKAEKAKSAGVQGSK [RPL24B] | 3.27 ± 0.087 | 3.11 ± 0.068 | 3.29 ± 0.042 | 3.18 ± 0.065
ADAKAFLDSMAQKYASI [FAS2] | 3.07 ± 0.083 | 3.19 ± 0.086 | 2.94 ± 0.049 | 3.12 ± 0.047
ADDEKSDEEEVTEMSNN [BRR2] | 3 ± 0.06 | 3.02 ± 0.042 | 3.1 ± 0.048 | 2.84 ± 0.054
ADEEEEIVDTYQEDIFV [ISW2] | 2.8 ± 0.11 | 2.67 ± 0.12 | 2.48 ± 0.088 | 3.43 ± 0.12
ADGLLQVLVCTATLAWG [BRR2] |  | 1.77 ± 0.28 | 2.14 ± 0.25 | 2.17 ± 0.18
ADGPTMREITETIAEAK [RPO21] | 3.46 ± 0.074 | 3.45 ± 0.055 | 3.39 ± 0.041 | 3.39 ± 0.026
ADGSSYMEQGNNKIITL [SKI6] | 2.79 ± 0.044 | 3.07 ± 0.059 | 3.015 ± 0.029 | 2.82 ± 0.04
ADILCPLLESFITFSLD [IRR1] | 2.63 ± 0.11 | 2.32 ± 0.081 | 2.34 ± 0.064 | 2.17 ± 0.071
ADITDGNNTELTKTTVN [YCG1] | 3.19 ± 0.078 | 3.22 ± 0.068 | 3.09 ± 0.053 | 3.33 ± 0.052
ADKPFTRLTAYQELAYR [YML031W/NDC1] | 2.52 ± 0.12 | 3.17 ± 0.11 | 3 ± 0.098 | 3.06 ± 0.18
ADLMALENATWTMRIEG [SNF12] | 2.94 ± 0.11 | 3.05 ± 0.13 | 3.07 ± 0.081 | 3.17 ± 0.12
ADNNDLQESINHVMYTE [ECM29] | 2.66 ± 0.086 | 3.02 ± 0.096 | 3.02 ± 0.054 | 3.05 ± 0.1
ADVFTDDDLFETLVLSY [YCG1] | 2.46 ± 0.09 | 2.65 ± 0.056 | 2.06 ± 0.041 | 2.85 ± 0.064
AECISLICSIGLHSSEY [ECM29] | 1.98 ± 0.053 | 2.38 ± 0.051 | 2.62 ± 0.048 | 2.2 ± 0.092

Sequence | protein stability index (doa10∆) | protein stability index (pdr5∆) | protein stability index (ubr1∆) | protein stability index (san1∆)
AEENLKKRIRLPSEERI [YIL149C/MLP2] | 2.89 ± 0.081 | 2.48 ± 0.066 | 3.08 ± 0.044 | 2.61 ± 0.08
AEKSFKPPKNKYKVVRR [SEC65] | 2.58 ± 0.18 | 3 ± 0.17 | 3.16 ± 0.13 | 3.21 ± 0.071
AELDPSLRTPIAPKITP [SEC65] | 3.06 ± 0.1 | 3.05 ± 0.058 | 3.13 ± 0.055 | 3 ± 0.082
AELIGLQPIFKGEEAKL [SSN3] | 2.54 ± 0.18 | 1.57 ± 0.16 | 1.33 ± 0.2 | 
AELIPELYSFQQLVDSE [SNF12] | 1.79 ± 0.08 | 2.12 ± 0.067 | 1.87 ± 0.047 | 2.67 ± 0.057
AELRPLQFKSIREIDVA [RPS7A] | 2.26 ± 0.093 | 1.67 ± 0.1 | 1.43 ± 0.068 | 1.97 ± 0.24
AENMLEELRGQQTEHET [SMC4] | 3.02 ± 0.13 | 2.97 ± 0.2 | 3.4 ± 0.1 | 3.32 ± 0.069
AESEAITVTAKQQPTMQ [SWI3] | 3.14 ± 0.083 | 3.22 ± 0.063 | 3.04 ± 0.035 | 2.88 ± 0.071
AESEWNGVNVQTLKGVG [RPC37] | 1.23 ± 0.075 | 1.79 ± 0.14 | 1.13 ± 0.18 | 
AFDLDGTGKSQSGSNSG [ROX3] | 3.44 ± 0.25 | 2.71 ± 0.2 | 3.42 ± 0.23 | 
AFEELEGSWDRGIPRIS [PRP8] | 2.88 ± 0.18 | 3.36 ± 0.19 | 3.3 ± 0.24 | 3.36 ± 0.22
AFPKDDRSKPVALTSFL [RPL3] | 2.77 ± 0.1 | 2.75 ± 0.083 | 1.95 ± 0.045 | 3.33 ± 0.054
AFSYPRMYEEASGKEVE [RPN2] | 2.66 ± 0.09 | 1.34 ± 0.082 | 1.35 ± 0.059 | 1.28 ± 0.11
AGAVAPEDIWVRAVNTG [RPP0] |  |  | 1.31 ± 0.29 | 1.93 ± 0.28
AGFTHKLSNWLFGWNDL [YDL088C/ASM4] | 2.69 ± 0.065 | 3.06 ± 0.059 | 2.93 ± 0.037 | 2.9 ± 0.063
AGGAADCQFWETWLGSQ [PRE2] | 3.19 ± 0.18 | 3.19 ± 0.15 | 3.77 ± 0.13 | 2.97 ± 0.09
AGKQLEDGRTLSDYNIQ [RPS31] | 2.81 ± 0.11 | 2.94 ± 0.16 | 3.15 ± 0.1 | 3.6 ± 0.094
AGKWSSKYLIKQIDIPN [ECM29] | 1.55 ± 0.068 | 1.86 ± 0.088 | 2.05 ± 0.049 | 2.15 ± 0.087
AGTEANAVSFDTTFSDF [SRB4] | 3.03 ± 0.042 | 3.06 ± 0.045 | 3.02 ± 0.038 | 3.036 ± 0.029
AGTQSSKFSKQQAKGAF [RPL24A] | 3.2 ± 0.063 | 3.27 ± 0.062 | 3.17 ± 0.049 | 3.27 ± 0.035
AGTTDNSFIKANLPWLG [RPN2] | 1.48 ± 0.1 | 1.72 ± 0.064 | 1.36 ± 0.065 | 1.39 ± 0.086
AGVNNDNTKESKDVKMN [RTT102] | 3.1 ± 0.25 |  | 2.35 ± 0.24 | 
AGYTTHLMKRIQKGPVR [RPS17A] | 2.2 ± 0.11 | 2.97 ± 0.15 | 2.57 ± 0.096 | 1.86 ± 0.16
AHFLSLSFTPTTVIGIR [RPN2] | 1.57 ± 0.043 | 1.56 ± 0.041 | 1.27 ± 0.031 | 1.28 ± 0.083
AHLAEIQLNGGSISEKV [RPL3] |  |  | 2.86 ± 0.12 | 
